Experimental data from patent US6429014B1, “Monoterpene synthases from grand fir (Abies grandis)” (Washington State University Research Foundation, priority 1997, dated 2002).

Columns and labels:
[1] = Monoterpene synthase assay and product identification with extracts of E. coli expressing Grand fir cDNA clones (Example 3); type: biochemical
Method: For expression, bacterial strains E. coil XLOLR/pAG3.18, E. coil XLOLR/pAG3.48, E. coli XL1-Blue/pGAG2.2, E. coli XL1-Blue/pGAG3.18, and E. coil BL21(DE3)/pSBAG10were grown to A600=0.5 at 37° C. in 5 ml of LB medium (Sambrock, J., Fritsch, E. F., and Maniatis, T. (1989) Molecular Cloning: A Laboratory Manual, 2d Ed., Cold Spring Harbor Laboratory, Cold Spring Harbor, N.Y.) supplemented with 100 μg ampicillin/ml or 30 μg kanamycin/ml as determined by the vector. Cultures were then induced by addition of 1 mM isopropyl-1-thio-β-D-galactopyranoside and grown for another 12 h at 20° C. Cells were harvested by centrifugation (2000×g, 10 min) and resuspended in either 1 ml monoterpene synthase assay buffer [50 mM Tris/HCl (pH 7.5), 500 mM KCl, 1 mM MnCl2, 5 mM dithiothreitol, 0.05% (w/v) NaHSO3 and 10% (v/v) glycerol], 1 ml sesquiterpene synthase assay buffer [10 mM dibasic potassium phosphate, 1.8 mM monobasic potassium phosphate (pH 7.3), 140 mM NaCl, 10 mM MgCl2, 5 mM dithiothreitol, 0.05% (w/v) NaHSO3 and 10% (v/v) glycerol], or 1 ml diterpene synthase assay buffer [30 mM Hepes (N-2-hydroxyethylpiperazine-N-′2-ethanesulfonic acid, pH 7.2), 7.5 mM MgCl2, 5 mM dithiothreitol, 10 µM MnCl2, 0.05% (w/v) NaHSO3 and 10% (v/v) glycerol].
Cells were disrupted by sonication (Braun-Sonic 2000 with microprobe at maximum power for 15 seconds at 0-4° C.), the homogenates were cleared by centrifugation (18,000×g, 10 min), and 1 ml of the resulting supernatant was assayed for monoterpene synthase activity with 2.5 μM of [1-^3H]geranyl diphosphate, for sesquiterpene synthase activity with 3.5 μM [1-^3H]farnesyl diphosphate, or for diterpene synthase activity with 5 μM [1- ^3H]geranylgeranyl diphosphate following standard protocols (Croteau, R., and Cane, D. E. (1985) Methods Enzymol. 110:383-405; LaFever, R. E., Stofer Vogel, B., and Croteau, R. (1994) Arch. Biochem. Biophys. 313:139-149; Dehal, S. S., and Croteau, R. (1988) Arch. Biochem. Biophys. 261:346-356). In the case of the monoterpene synthase and sesquiterpene synthase assays, the incubation mixture was overlaid with 1 ml pentane to trap volatile products. In all cases, after incubation at 31° C. for 2 h, the reaction mixture was extracted with pentane (3×1 ml) and the combined extract was passed through a 1.5 ml column of anhydrous MgSO4 and silica gel (Mallinckrodt 60 Å) to provide the terpene hydrocarbon fraction free of oxygenated metabolites. The columns were subsequently eluted with 3×1 ml of ether to collect any oxygenated products, and an aliquot of each fraction was taken for liquid scintillation counting to determine conversion rate.
Product Identification—To obtain sufficient product for analysis by radio-GLC (gas liquid chromatography), chiral capillary GLC and GLC-MS (mass spectrum/spectrometry), preparative-scale enzyme incubations were carried out. Thus, the enzyme was prepared from 50 ml of cultured bacterial cells by extraction with 3 ml of assay buffer as above, and the extracts were incubated with excess substrate overnight at 31° C. The hydrocarbon fraction was isolated by elution through MgSO4-silica gel as before, and the pentane eluate was concentrated for evaluation by capillary radio-GLC as described (Croteau, R., and Satterwhite, D. M. (1990) J. Chromatogr. 500:349-354), by chiral column capillary GLC (Lewinsohn, E., Savage, T. J., Gijzen, M., and Croteau, R. (1993) Phytochem. Anal. 4:220-225), and by combined GLC-MS [Hewlett-Packard 6890 GC-MSD with cool (40° C.) on-column injection, detection via electron impact ionization (70 eV), He carrier at 0.7 psi., column:0.25 mm i.d.×30 m fused silica with 0.25 μm film of 5MS (Hewlett-Packard) programmed from 35° C. (5 min hold) to 230° C. at 5° C./min].

[2] = Terpene synthase assay and GC-MS / chiral GC product identification of recombinant enzymes expressed from pSBET in E. coli BL21(DE3) (Example 11); type: biochemical; conditions: extracts of induced cells
Method: For functional expression, bacterial strains E. coli BL21(DE3)/pSAG2(M), E. coli BL21(DE3)/pSAG2(R), E. coli BL21(DE3)/pSAG3(R), E. coli BL21(DE3)/pSAG6(M), E. coli BL21(DE3/pSAG6(R), E. coli BL21(DE3)/pSAG8(M), E. coli BL21(DE3)/pSAG9(M), E. coli BL21(DE3)/pSAG11(M) and E. coli BL21(DE3)/SAG11(R) were grown to A600=0.5 at 37° C. in 5 ml of Luria-Bertani medium (Sambrook, J., Fritsch, E. F., and Maniatis, T. (1989) Molecular Cloning: A Laboratory Manual, 2nd Ed., pp. 7.20-7.43, Cold Spring Harbor, N.Y.) supplemented with 30 μg kanamycin/ml. Cultures were then induced by addition of 1 mM isopropyl-1-thio-β-D-galactopyranoside and grown for another 12 h at 20° C. Cells were harvested by centrifugation and disrupted by sonication followed by centrifugation, and the resulting soluble enzyme preparations were assayed for monoterpene, sesquiterpene and diterpene synthase activity using the appropriate radiolabeled substrate as described previously (Bohlmann, J., Steele, C. L., and Croteau, R. (1997) J. Biol. Chem. 272, 21784-21792). This assay involves the isolation and separation of terpene olefins and oxygenated terpenes by column chromatography on silica, followed by scintillation counting to determine conversion rate. GC-MS analysis is employed for product identification, by comparison of retention times and mass spectra to those of authentic standards (Bohlmann, J., Steele, C. L., and Croteau, R. (1997) J. Biol Chem. 272, 21784-21792); assignment of absolute configuration is based upon chiral column capillary GC and matching of retention time to that of the corresponding enantiomer (Lewinsohn, E., Savage, T. J., Gijzen, M., and Croteau, R. (1993) Phytochem. Anal. 4, 220-225). To insure production of sufficient material for identification, the standard assay (Bohlmann, J., Steele, C. L., and Croteau, R. (1997) J. Biol. Chem. 272, 21784-21792) was scaled up by a factor of 20.
Initially, the four pSBET plasmids pSAG6(M), pSAG8(M), pSAG9(M) and pSAG11(M), containing the full-length cDNA inserts of ag6 (SEQ ID NO:64), ag8 (SEQ ID NO:66), ag9 (SEQ ID NO:77) and ag11 (SEQ ID NO:68), respectively, were expressed in E. coli BL21(DE3). Extracts of the induced, transformed bacterial cells were assayed for monoterpene, sesquiterpene and diterpene synthase activity using the corresponding labeled C10, C15 and C20 prenyl diphosphate substrates (Bohlmann, J., Steele, C. L., and Croteau, R. (1997) J. Biol. Chem. 272, 21784-21792). […] Since it is known that the relatively large amino-terminal transit peptide of plant terpene synthases can impair expression of the functional preprotein in E. coli and promote the formation of intractable inclusion bodies (Williams, D. C., McGarvey, D. J., Katahira, E. J., and Croteau, R. (1998) Biochemisiry 37, 12213-12220), the“pseudomature” forms of ag6 (SEQ ID NO:64) and ag11 (SEQ ID NO:68) were prepared by truncation of the cDNAs to insert a starting methionine immediately upstream of their tandem arginine elements (R59R 60 for ag6 (SEQ ID NO:64), R^71R^72 for ag11 (SEQ ID NO:68)) for expression in E. coli BL21(DE3)/pSAG6(R) and E. coli BL21(DE3)/pSAG11(R). Similar truncations of previously characterized ag2.2 (SEQ ID NO:1) (myrcene synthase, R^64R^65) and ag3.18 (SEQ ID NO:3) ((−)-pinene synthase, (SEQ ID NO:5) R^64R^65) (Bohlmann, J., Steele, C. L., and Croteau, R. (1997) J. Biol. Chem. 272, 21784-21792) were prepared for expression from pSBET as controls for the possible alteration of product yield and distribution resulting from truncation.
Monoterpenes generated at preparative scale from geranyl diphosphate by the recombinant enzymes encoded by ag6 (SEQ ID NO:64), ag8 (SEQ ID NO:66), ag9 (SEQ ID NO:77) and ag11 (SEQ ID NO:68) were analyzed by GC-MS and chiral phase (β-cyclodextrin) capillary GC, and identified by comparison of retention times and mass spectra to authentic standards (FIGS. 6-9). […] The enzyme encoded by ag6 (SEQ ID NO:65) is therefore designated as (−)-1S,4R-camphene synthase. […]

B1: AG2.2: recombinant myrcene synthase from Grand fir encoded by cDNA clone AG2.2 (SEQ ID NO:1; protein SEQ ID NO:2) (protein, listed as Abies grandis)
chain: MALVSISPLASKSCLRKSLISSIHEHKPPYRTIPNLGMRRRGKSVTPSMSISLATAAPDDGVQRRIGDYHSNIWDDDFIQSLSTPYGEPSYQERAERLIVEVKKIFNSMYLDDGRLMSSFNDLMQRLWIVDSVERLGIARHFKNEITSALDYVFRYWEENGIGCGRDSIVTDLNSTALGFRTLRLHGYTVSPEVLKAFQDQNGQFVCSPGQTEGEIRSVLNLYRASLIAFPGEKVMEEAEIFSTRYLKEALQKIPVSALSQEIKFVMEYGWHTNLPRLEARNYIDTLEKDTSAWLNKNAGKKLLELAKLEFNIFNSLQQKELQYLLRWWKESDLPKLTFARHRHVEFYTLASCIAIDPKHSAFRLGFAKMCHLVTVLDDIYDTFGTIDELELFTSAIKRWNSSEIEHLPEYMKCVYMVVFETVNELTREAEKTQGRNTLNYVRKAWEAYFDSYMEEAKWISNGYLPMFEEYHENGKVSSAYRVATLQPILTLNAWLPDYILKGIDFPSRFNDLASSFLRLRGDTRCYKADRDRGEEASCISCYMKDNPGSTEEDALNHINAMVNDIIKELNWELLRSNDNIPMLAKKHAFDITRALHHLYIYRDGFSVANKETKKLVMETLLESMLF
[1]; cell-free extract of induced E. coli, tritium labeled substrates
  prenyl diphosphate substrate utilized (geranyl, farnesyl, geranylgeranyl diphosphate tested): only with geranyl diphosphate as substrate
[1]; radio-GLC, GLC-MS, chiral GLC
  monoterpene products formed from geranyl diphosphate: the only product was shown to be myrcene
[2]
  terpene synthase activity on expression from pSBET in E. coli BL21(DE3): high level expression of activity
